In the DeepSol protein solubility set:

Assay: soluble on expression in E. coli; label from the status in PepcDB or PDB records

Sequence	soluble on expression in E. coli
MTITRQDAWTQDEDLLLAEVVLRHIREGGTQLSAFEEVGRALTRTAAACGFRWNSYVRKQYQSGIELAKKQRKELRKQIGVHSVNMPNSMKQTASASSEGKRDLSIQDVIQFLEQFKETPSAQEFQLEREKLKEQIQSLQKELEDLRSENQTLRNQLEMTEEDYKALIDIMDRARKMVVSKEDGRMKKAAQETLEHHHHHH	not soluble
MTKENICIVFGGKSAEHEVSILTAQNVLNAIDKDKYHVDIIYITNDGDWRKQNNITAEIKSTDELHLENGEALEISQLLKESSSGQPYDAVFPLLHGPNGEDGTIQGLFEVLDVPYVGNGVLSAASSMDKLVMKQLFEHRGLPQLPYISFLRSEYEKYEHNILKLVNDKLNYPVFVKPANLGSSVGISKCNNEAELKEGIKEAFQFDRKLVIEQGVNAREIEVAVLGNDYPEATWPGEVVKDVAFYDYKSKYKDGKVQLQIPADLDEDVQLTLRNMALEAFKATDCSGLVRADFFVTEDNQIYINETNAMPGFTAFSMYPKLWENMGLSYPELITKLIELAKERHQDKQKNKYKIDRSHHHHHH	soluble
MTKETYPKATVLDISASVEYSDGGIISKQVLKNEVGNITLFSFDQGQGLSEHTAPFDAFVQILEGEAEIRIGGQPLLLKAGRSVIMPANVSHALHATKRFKMLLTMIRG	not soluble
MTKKKAKKNQKTGAAAAPPHESQKKEKENDFEMLEDIKRDEDLFFSETDISNISNFIRTTNKSFNSLGNTFVEQFTNRCSLAIFQALATCFEIHSEERDDVIRRLNIIYIVWRLPDLEPELRPKPPKNLSDVYSHPYATFLFAAEQIEHRIEAMLARIIVSNNINQVEKLTAPDFIQKAAAGGLTVVVEGIDRTGFVDWCEANTDHWPEVHDSVVPLPKAMRELGCERKDYESGMAEAFYPIMHNAPTQLPPRMEALEQEDPIIREWRLKVDPENTSATPVIYSMCSGDKMQEELMQAFDELEPTIAEYQSDLIAGMTAPELEELNKQIDCDDQMSQSSDSAPPSEVSSDLELDTALDIRDGMTMPLVDLKDEVIEGCVDRILDGTTLTTSKSDMMIQFVRTALITHPQYDRLLQASVLDENIISFIRTNVKFAGAFLVRNALSEQDTCLLFKRYMRLCEGVNSTVHSLETVLKLSKEFIEHDKLTQEHREVVLAFVRHTIRTCEGDRTVRLVAMLVKKLLRERVLNVEDIAADVKPFTLKYTDNRECTALYQSMINMQNGGGGGGQENMTTSTTTTTTTTKSSSPNSLSTTTTTTSHNPGASATTTTTTVVKTCGPATFKQTSRKVVLQFKNPSQNAHF	not soluble
MTKLEQIQQWTAQHHASMTYLSNPKTIEYLTGFGSDPIERVLALVVFPDQDPFIFAPALEVEVIKETGWQFPVIGYLDHENPWAMIADQVKQRHVNPEHVAIEKGQLQVARMEALAAQFSAPSFDLDITSFIEHMR	soluble
MTKLVLTPADTFFFKNHHATQAGETTVMESMFPPRPNTIYGALRAAYIYAYSSFDEFARGADERVKLWMGTPDERGAFRLHYCALADGDSLFLPLPLDYQVVEEGDSLKAYPLQLAKDRKPSSASTMWRLASSRREKTKSSQHRYVSLSEWKKALLLNQPIASLRTLSSFIVQEEKVGIQLDVSRRTAQEGFLYRVGKHRFLGDSSLVAYIDDGPDFSNVKWARIGGENRPWFIRQHPEEFRLWNDDEKRRIEQDIQRTKMAKIIFLSPAIFANGSRPAAMEGDRWTWPNGAVVTWLAAAIGRPELYGGWDIVRHRPKPRKWMIPAGSVIYVKIERDDDLRLVFSALDGIHLTDEGAEEGFGFAVLASVHESEEEL	not soluble
MTKPRYNDVLFDDDDSVPSESVTRKSQRRKATSPGESRESSKDRLLILPSMGESYTEYVDSYLNLELLERGERETPIFLESLTRQLTQKIYELIKTKSLTADTLQQISDKYDGVVAENKLLFLQRQYYVDDEGNVRDGRNNDKIYCEPKHVYDMVMATHLMNKHLRGKTLHSFLFSHFANISHAIIDWVQQFCSKCNKKGKIKPLKEYKR	not soluble
MTKQAEETQKPIIFAPETYQYDKFTLNEKQLTDDPIDLFTKWFNEAKEDPRETLPEAITFSSAELPSGRVSSRILLFKELDHRGFTIYSNWGTSRKAHDIATNPNAAIVFFWKDLQRQVRVEGITEHVNRETSERYFKTRPRGSKIGAWASRQSDVIKNREELDELTQKNTERFKDAEDIPCPDYWGGLRIVPLEIEFWQGRPSRLHDRFVYRRKTENDPWKVVRLAP	soluble
MTKRIEIKPATAADQAALAEIYLVDRQQDFPWVTDPQLQDFNEDSRGEFVLVAWIDGQRAGFCSLYRLANFIHLLFVAPDFRHLKVGERLLTEMRQYATEPLTLKCVMANENALRFYAQVGFRIVK	not soluble
MTKRLFLPEWAPQEAVQLTWPHDRTDWAYMLDEVETCFVRIATAILRHERLIVVCPDRKRVFGLLPPELHHRLYCFELPSNDTWARDHGGISLLADGRPMIADFAFNGWGMKFAAHHDNLITRRLHALGLFAEGVTLDNRLAFVLEGGALETDGEGTLLTTDSCLFEPNRNAGLSRTAIIDTLKESLGVSRVLSLRHGALAGDDTDGHIDTLARFVDTRTIVYVRSEDPSDEHYSDLTAMEQELKELRRPDGQPYRLVPLPMAEALYDGADRLPATYANFLIINGAVLVPTYDSHLDAVALSVMQGLFPDREVIGIDCRPLVKQHGSLHCVTMQYPQGFIRLEHHHHHH	soluble
MTKTEKDWFQRLIKLIKSDGRTMIEISKAAGCGQNYVQQMIKGGKRPSVDKLMALLNTLGNASAIYVITGFNISDEDLKLIALISSGDKKKIEALSLLLTEKKQ	not soluble
MTKTNLITGFLGSGKTTSILHLLAHKDPAEKWAVLVNEFGEVGIDGALLADSGALLKEIPGGCMCCVNGLPMQVGLNTLLRQGKPDRLLIEPTGLGHPKQILDLLTAPVYEPWIDLRATLCILDPRLLLDQQSVANENFRDQLASADIIIANKTDRATAQSDAALQQWWRQYGGDRQLIHAEHGQIDGKLLDLPRQNLAELPASAAHSHTHASKKGLAALNLPAQQRWRRSLNSGQGHQACGWIFDADTVFDTIGLLEWARLAPVGRVKGVMRIQEGLVRINRQGDDLHIETQSVAPPDSRVELISNTETDWNTLQTALLKLRLATHA	not soluble
MTKVTREEVEHIANLARLQISPEETEEMANTLESILDFAKQNDSADTEGVEPTYHVLDLQNVLREDKAIKGIPQELALKNAKETEDGQFKVPTIMNEEDALEHHHHHH	not soluble
MTKWKRANPNGTRDYLFEECTLIEEVEQKLRLTFLERGYEEIRTPTIEFYDVFAFQNRPIDEEKMYKFFDEKGRIIVLRPDMTIPLARVIGTQRWDTPLKVTYSGNVFRANESHSGKYNEIVQSGIEVIGIDNVRAEIECVISVIQALQKLKVQSFTIEIGQVQLYKCIVKKLSIQDEEERVLRTYIESKNYAALSNFIGEKKLDRCDETVRLLEKLPRLFGNLEVIEEAEKLASSNEMKMAIARVKEMYETIEMLGYGSYISIDLGMIQHLDYYTGVIFKGYIYEIGEEIVSGGRYDELIGNFGEMLPAVGLAVQVNQIVKALQEQQEPYERNQIDIVIHYELNRLAEAERLRNLLRKDGKNAWLSLFSNLSDTFQFARKNKIGTVVEAQNEYLVEYVWNEKWVVQKEGEASCVTFKLR	not soluble
MTLALLGSSLPAASLQAGETGISVSASSTVTYNPDTAEFTTTVESTDKDAAKAAAKVATLWSSLQQALRKVGISSADASSTSYTVSPEWEWNSANGKREFKGYKARHVVRVVVRDLGKLGGAIDAVVGAGSGTVDGLSYSSSRFESLRTQALENAVKSAKHDAEVMARAAGGRLGQPLELQYGQPQSDYPVMRFAMAEGFKAAPAPTDVEPGEQKLTVSVSSRWQFVSGSGKLEHHHHHH	not soluble
MTLDESCKILNIEESKGDLNMDKINNRFNYLFEVNDKEKGGSFYLQSKVYRAAERLKWELAQREK	soluble
